Test results: publication PMC2888511

Columns and labels:
Beclin 1 [1] = target: Beclin 1 (UniProt Q14457); experiment: anti-flag IP of flag-Beclin 1, HA-Vps34 blot; settings: reference: wild type with Cdk5/p25; sites T159
Beclin 1 [2] = target: Beclin 1 (UniProt Q14457); experiment: anti-flag IP of flag-Vps34, GFP-Beclin 1 blot; settings: reference: wild type with Cdk5/p25; sites T159

“Vps34 (from UniProt Q8NEB9) T159A with Cdk5/p25” was tested, and the “binding against the reference” value (Beclin 1 [1]) was “stronger” and the “binding against the reference” value (Beclin 1 [2]) was “stronger”.
